Target: mono-ubiquitin (UniProt P0CG48 1-76)
Test: MST

B1: human α5 subunit, wild type, recombinant (natural protein)
chain: MFLTRSEYDRGVNTFSPEGRLFQVEYAIEAIKLGSTAIGIQTSEGVCLAVEKRITSPLMEPSSIEKIVEIDAHIGCAMSGLIADAKTLIDKARVETQNHWFTYNETMTVESVTQAVSNLALQFGEEDADPGAMSRPFGVALLFGGVDEKGPQLFHMDPSGTFVQCDARAIGSASEGAQSSLQEVYHKSMTLKEAIKSSLIILKQVMEEKLNATNIELATVQPGQNFHMFTKEELEEVIKDI
modifications: labelled with RED-NHS 2nd Generation dye
- Kd: 57.7 µM

Source: doi:10.1101/2020.12.22.423932 (bioRxiv, 2020)
